Assay results from the supplement of paper PMC9233669.
Variants at the floor of the assay were thinned out.

Columns and labels:
biotinyl-Val-oxazolone = experiment: self-aminoacylation, catalytic enhancement (BVO) (fold over background); higher = more active; k-Seq, kA / k0A0; sequences stand for … in GGGAAUGGAUCCACAUCUACGAAUUC…UUCACUGCAGACUUGACGAAGCUG
Procedure, shortened: (§1)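 The uncatalyzed rate is the low-activity peak of a bimodal Gaussian fit, and catalytic enhancement is median kA divided by it. The kA values came from pseudo-first-order fits, with 1000 bootstraps, of per-sequence fraction reacted measured by streptavidin capture, triplicate qPCR and Illumina sequencing. Mutagenized RNA pools with a 21-nt variable region (0.43 μM) were reacted with each biotinyl-aminoacyl-oxazolone at 2–1250 μM in 50 μL HEPES/NaCl/KCl/MgCl2/CaCl2 buffer with 5% acetonitrile, pH 6.9–7.0, for 90 minutes at room temperature.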

biotinyl-Leu-oxazolone = experiment: self-aminoacylation, catalytic enhancement (BLO) (fold over background); higher = more active; k-Seq, kA / k0A0; sequences stand for … in GGGAAUGGAUCCACAUCUACGAAUUC…UUCACUGCAGACUUGACGAAGCUG
Procedure, shortened: as §1

biotinyl-Ile-oxazolone = experiment: self-aminoacylation, catalytic enhancement (BIO) (fold over background); higher = more active; k-Seq, kA / k0A0; sequences stand for … in GGGAAUGGAUCCACAUCUACGAAUUC…UUCACUGCAGACUUGACGAAGCUG
Procedure, shortened: as §1

biotinyl-Met-oxazolone = experiment: self-aminoacylation, catalytic enhancement (BMO) (fold over background); higher = more active; k-Seq, kA / k0A0; sequences stand for … in GGGAAUGGAUCCACAUCUACGAAUUC…UUCACUGCAGACUUGACGAAGCUG
Procedure, shortened: as §1

biotinyl-Trp-oxazolone = experiment: self-aminoacylation, catalytic enhancement (BWO) (fold over background); higher = more active; k-Seq, kA / k0A0; sequences stand for … in GGGAAUGGAUCCACAUCUACGAAUUC…UUCACUGCAGACUUGACGAAGCUG
Procedure, shortened: as §1

biotinyl-Phe-oxazolone = experiment: self-aminoacylation, catalytic enhancement (BFO) (fold over background); higher = more active; k-Seq, kA / k0A0; sequences stand for … in GGGAAUGGAUCCACAUCUACGAAUUC…UUCACUGCAGACUUGACGAAGCUG
Procedure, shortened: as §1

| Sequence | self-aminoacylation (biotinyl-Val-oxazolone) | self-aminoacylation (biotinyl-Leu-oxazolone) | self-aminoacylation (biotinyl-Ile-oxazolone) | self-aminoacylation (biotinyl-Met-oxazolone) | self-aminoacylation (biotinyl-Trp-oxazolone) | self-aminoacylation (biotinyl-Phe-oxazolone) |
| --- | --- | --- | --- | --- | --- | --- |
| AUUACCCUGCGCAUCGAGUGA [Fam2.1 aminoacylation ribozyme variant] | 2.56 | 5.76 | 2.03 | 5.86 | 6.75 | 20.5 |
| AUUCACCUUGGUCAUCGGUUG [Fam2.2 aminoacylation ribozyme variant] | 1.06 | 0.855 | 0.9 | 0.844 | 0.806 | 0.347 |
| AUUCACCUAGGUCACCGAGUG [Fam2.2 aminoacylation ribozyme variant] | 1.99 | 4.03 | 2.11 | 3.57 | 3.47 | 14.4 |
| AUACACCUAAGUCAUCGGGUG [Fam2.2 aminoacylation ribozyme variant] | 2.91 | 5.83 | 3.47 | 4.44 | 4.14 | 28.8 |
| AACUUUGCUAAUAGUCGCAAU [Fam3.1 aminoacylation ribozyme variant] | 2.51 | 3.35 | 2.94 | 2.79 | 2.77 | 6.33 |
| CUACUUCAAACAAUCGCGCUG [Fam1A.1 aminoacylation ribozyme variant] | 1.35 | 1.88 | 1.47 | 1.52 | 1.1 | 1.59 |
| AUUCACCUAGGUCAUAGGGUA [Fam2.2 aminoacylation ribozyme variant] | 1.16 | 0.856 | 1.21 | 0.923 | 1.67 | 0.412 |
| CCACACUUCCAGCAAUCGAUC [Fam1B.1 aminoacylation ribozyme variant] | 0.959 | 0.579 | 0.83 | 0.673 | 0.611 | 0.92 |
| CCAGUCUUCAAGCAAUCGGUC [Fam1B.1 aminoacylation ribozyme variant] | 1.63 | 2.8 | 1.67 | 1.79 | 38.6 | 68.5 |
| CUACUUCAAAGAAUAGGUCUG [Fam1A.1 aminoacylation ribozyme variant] | 0.746 | 0.699 | 0.816 | 0.784 | 0.59 | 0.944 |
| AUCCACCUAGGUCAUCGGCUG [Fam2.2 aminoacylation ribozyme variant] | 2.29 | 2.87 | 1.95 | 1.72 | 2.44 | 9.73 |
| CUAUUUCAAACAAUCGGUCGG [Fam1A.1 aminoacylation ribozyme variant] | 0.868 | 0.92 | 0.851 | 0.793 | 1.9 | 2.12 |
| AUUAGCCUGGUCAUAGAGUGA [Fam2.1 aminoacylation ribozyme variant] | 3.18 | 5.43 | 2.96 | 4.83 | 7.07 | 18.4 |
| AUUCGCCUAGGCCAUCGGGUG [Fam2.2 aminoacylation ribozyme variant] | 4.16 | 5.27 | 3.15 | 4.46 | 4.7 | 35.5 |
| AUGCAACUAGGUCAUCGGGUG [Fam2.2 aminoacylation ribozyme variant] | 5.58 | 9.82 | 6.38 | 8.13 | 8.26 | 56.2 |
| CUAUUUCAAACCAUCGGUCUG [Fam1A.1 aminoacylation ribozyme variant] | 0.988 | 0.94 | 1.03 | 1.09 | 0.708 | 0.809 |
| CCACACUUCAAGCAAUCGGGA [Fam1B.1 aminoacylation ribozyme variant] | 1.8 | 1.04 | 1.55 | 1.51 | 1.87 | 1.46 |
| AAGUUUACUAAUACUCGCAAG [Fam3.1 aminoacylation ribozyme variant] | 1.18 | 1.06 | 1.26 | 1.18 | 1.37 | 1.55 |
| AAGUUUCCUAAUAGUAGCAAG [Fam3.1 aminoacylation ribozyme variant] | 1.05 | 1.12 | 1.28 | 1.17 | 0.808 | 1.11 |
| AUUACCCUGAUAAUCGAGUGA [Fam2.1 aminoacylation ribozyme variant] | 4.59 | 10.3 | 4.12 | 9.64 | 11.1 | 39.8 |
| UCACACUUCAAGCAAUCGGUG [Fam1B.1 aminoacylation ribozyme variant] | 3.95 | 7.95 | 3.81 | 5.17 | 6.38 | 29 |

| Sequence | self-aminoacylation (biotinyl-Val-oxazolone) | self-aminoacylation (biotinyl-Leu-oxazolone) | self-aminoacylation (biotinyl-Ile-oxazolone) | self-aminoacylation (biotinyl-Met-oxazolone) | self-aminoacylation (biotinyl-Trp-oxazolone) | self-aminoacylation (biotinyl-Phe-oxazolone) |
| --- | --- | --- | --- | --- | --- | --- |
| AUUACCCUGGUUAUCGUGUGA [Fam2.1 aminoacylation ribozyme variant] | 1.49 | 2.3 | 1.27 | 2.4 | 2.76 | 15 |
| CCCCACUUCAAGCAAUCGAUC [Fam1B.1 aminoacylation ribozyme variant] | 0.93 | 0.67 | 0.768 | 0.533 | 1.27 | 2.79 |
| CGACACUUCAAGCAAUCGGGC [Fam1B.1 aminoacylation ribozyme variant] | 2.43 | 1.85 | 1.91 | 1.36 | 2.12 | 8.3 |
| AUUCACCUAGGACAUCGGGUC [Fam2.2 aminoacylation ribozyme variant] | 1.25 | 1.42 | 1.22 | 0.87 | 0.858 | 0.549 |
| AUACUUCAAUCAAUCGGUCUG [Fam1A.1 aminoacylation ribozyme variant] | 1.06 | 1.33 | 1.11 | 1.19 | 6.62 | 8.53 |
| AUUACCUUGGUCAUCGGGUGA [Fam2.1 aminoacylation ribozyme variant] | 6.05 | 10.6 | 5.69 | 9.54 | 10.8 | 53.3 |
| AUAACCCUGGUCAUUGAGUGA [Fam2.1 aminoacylation ribozyme variant] | 3.82 | 8.57 | 3.89 | 8.67 | 10.2 | 36.7 |
| ACUCCCCUAGGUCAUCGGGUG [Fam2.2 aminoacylation ribozyme variant] | 10.3 | 18.6 | 8.61 | 13.7 | 13.8 | 101 |
| CUACUUCGAACGAUCGGUCUG [Fam1A.1 aminoacylation ribozyme variant] | 1.04 | 1.06 | 0.846 | 0.779 | 0.707 | 0.279 |
| AUUCACCCAGGUCAUCGCGUG [Fam2.2 aminoacylation ribozyme variant] | 8.43 | 19.4 | 8.24 | 16 | 13 | 123 |
| CCACACUUCAAGCCGUCGGUC [Fam1B.1 aminoacylation ribozyme variant] | 1.49 | 1.57 | 1.41 | 1.47 | 1 | 0.678 |
| AUUCACCUUGGUCAUAGGGUG [Fam2.2 aminoacylation ribozyme variant] | 1.16 | 1.59 | 0.995 | 1.21 | 1.05 | 1.15 |
| AUUCACCUAGGAUAUCGGGUG [Fam2.2 aminoacylation ribozyme variant] | 3.64 | 7.35 | 3.31 | 6.65 | 5.47 | 44.1 |
| AAGUUGGCUAAUAGUCGCACG [Fam3.1 aminoacylation ribozyme variant] | 1.63 | 1.81 | 1.35 | 1.61 | 2.11 | 2.62 |
| CCUCACUUCAAGCAACCGGUC [Fam1B.1 aminoacylation ribozyme variant] | 0.834 | 0.806 | 0.978 | 0.857 | 1.29 | 1.67 |
| GAGUUUGCUUAUAGUCGCAAG [Fam3.1 aminoacylation ribozyme variant] | 1.39 | 1.24 | 1.65 | 1.44 | 1.75 | 2.28 |
| AUUACCCUGACCAUCGAGUGA [Fam2.1 aminoacylation ribozyme variant] | 2.95 | 4.95 | 3.01 | 4.2 | 5.06 | 8.94 |
| AUUACCCAGGUCAUCGACUGA [Fam2.1 aminoacylation ribozyme variant] | 1.03 | 0.746 | 0.847 | 0.743 | 0.9 | 0.774 |
| CCACACUUCAACCAAUCGGUA [Fam1B.1 aminoacylation ribozyme variant] | 1.1 | 0.859 | 1.1 | 1.56 | 1.63 | 1.08 |
| GUAAUUCAAACAAUCGGUCUG [Fam1A.1 aminoacylation ribozyme variant] | 0.938 | 0.967 | 1.05 | 0.925 | 2.11 | 2.5 |
| CUACUACAAACAACCGGUCUG [Fam1A.1 aminoacylation ribozyme variant] | 1.14 | 0.845 | 1.19 | 0.601 | 0.954 | 1.12 |
